Data: article doi:10.1101/829150

Biological target: Chicken gizzard actin (chicken) (UniProt P63270)
Assay: nanopore sensing

Substance: Chicken gizzard actin (from UniProt P63270 1-376) (natural protein)
- filamentous fraction, initial: 17%
- filamentous fraction, maximum: 75%
